Test results: the Human Domainome abundance scans (Beltran et al. 2025)
± gives the uncertainty stated by the source.

B1: RAS guanyl-releasing protein 1, residues 539 to 593; numbered along this chain, O95267 (parent)
chain: GFPHNFQETTYLKPTFCDNCAGFLWGVIKQGYRCKDCGMNCHKQCKDLVVFECKK

Variants of: B1
Test: abundance fitness (aPCA) (normalised: wild type 0, dead -1); higher = more abundant; growth selection in yeast, the domain comes from the species named
Details: Homo sapiens

Row | Variant | abundance fitness
1 | F16S | -0.285 ± 0.094
2 | F16N | -0.175 ± 0.096
3 | F16A | -0.085 ± 0.08
4 | F16G | -0.333 ± 0.068
5 | D47K | -0.148 ± 0.096
6 | D47T | 0.047 ± 0.09
7 | D47F | -0.143 ± 0.41
8 | D47G | -0.05 ± 0.058
9 | T9M | 0.034 ± 0.076
10 | T9R | -0.068 ± 0.089
11 | D18Q | -0.001 ± 0.07
12 | D18R | -0.059 ± 0.084
13 | D18N | -0.026 ± 0.096
14 | C17A | -1.09 ± 0.09
15 | C17G | -0.99 ± 0.27
16 | K35Y | 0.024 ± 0.11
17 | K35Q | 0.1 ± 0.097
18 | Y11F | 0.227 ± 0.11
19 | Y11S | 0.028 ± 0.083
20 | Y11Q | -0.458 ± 0.41
21 | Y11I | -0.301 ± 0.097
22 | K13G | -0.333 ± 0.082
23 | K13N | -0.336 ± 0.16
24 | K13E | -0.565 ± 0.16

Row | Variant | abundance fitness
25 | K13S | -0.116 ± 0.054
26 | F6N | -0.29 ± 0.13
27 | F6K | -0.647 ± 0.17
28 | M39P | -1.03 ± 0.064
29 | G22I | -0.154 ± 0.13
30 | G22P | -0.595 ± 0.19
31 | G22Y | -0.317 ± 0.13
32 | G22M | 0.105 ± 0.072
33 | W25P | -0.07 ± 0.11
34 | W25A | -0.148 ± 0.078
35 | W25N | -0.377 ± 0.17
36 | W25R | -0.217 ± 0.067
37 | W25K | -0.206 ± 0.074
38 | W25E | -0.047 ± 0.093
39 | K55L | -0.718 ± 0.32
40 | F23Y | -0.074 ± 0.12
41 | F23K | -0.297 ± 0.1
42 | F23T | -0.503 ± 0.14
43 | F23N | -0.628 ± 0.16
44 | F23E | -0.333 ± 0.12
45 | E8C | -0.107 ± 0.1
46 | E8M | 0.197 ± 0.11
47 | E8W | -0.174 ± 0.1
48 | P14A | -0.253 ± 0.09

Row | Variant | abundance fitness
49 | G38A | 0.032 ± 0.079
50 | G38D | -0.003 ± 0.11
51 | E52A | -0.068 ± 0.11
52 | E52F | 0.184 ± 0.12
53 | N40K | -0.17 ± 0.063
54 | N40T | -0.042 ± 0.042
55 | V50N | -0.228 ± 0.11
56 | H42I | -0.939 ± 0.16
57 | H42L | -1.09 ± 0.1
58 | H42S | -0.319 ± 0.046
59 | H42R | -0.916 ± 0.11
60 | C53K | -0.257 ± 0.19
61 | C53I | -0.297 ± 0.2
62 | C53T | -0.245 ± 0.1
63 | C53E | -0.209 ± 0.11
64 | P3L | 0.007 ± 0.069
65 | P3M | 0.131 ± 0.12
66 | P3R | -0.015 ± 0.078
67 | P3Q | 0.14 ± 0.12
68 | Q7Y | -0.151 ± 0.14
69 | Q7C | -0.366 ± 0.19
70 | Q7M | 0.028 ± 0.097
71 | R33W | 0.004 ± 0.096
72 | R33G | -0.134 ± 0.1

Row | Variant | abundance fitness
73 | R33I | 0.118 ± 0.076
74 | R33C | 0.122 ± 0.13
75 | T15N | -0.336 ± 0.13
76 | T15K | -0.391 ± 0.14
77 | T15D | -0.622 ± 0.16
78 | T15I | -0.162 ± 0.069
79 | T15M | -0.146 ± 0.13
80 | T15A | 0.105 ± 0.092
81 | C41D | -0.758 ± 0.33
82 | C41V | 0.068 ± 0.082
83 | H4E | -0.628 ± 0.42
84 | H4D | -0.595 ± 0.063
85 | Q44I | -0.294 ± 0.28
86 | Q44D | 0.125 ± 0.12
87 | Q44R | 0.047 ± 0.065
88 | Q44M | -0.001 ± 0.12
89 | N19M | 0.135 ± 0.11
90 | C45H | -0.446 ± 0.13
91 | C45E | 0.068 ± 0.074
92 | C45K | -0.643 ± 0.25
93 | K43N | -0.417 ± 0.18
94 | K43G | -0.074 ± 0.052
95 | K43D | 0.011 ± 0.093
96 | K43C | -0.053 ± 0.066

Row | Variant | abundance fitness
97 | D36E | -0.021 ± 0.099
98 | D36V | -0.289 ± 0.096
99 | G31H | -0.559 ± 0.12
100 | V49W | 0.038 ± 0.14
101 | V49C | -0.229 ± 0.09
102 | V49T | -0.055 ± 0.1
103 | V49M | -0.446 ± 0.2
104 | V49H | 0.229 ± 0.1
105 | V49Q | -0.071 ± 0.15
106 | I28L | -0.27 ± 0.093
107 | I28S | -0.136 ± 0.072
108 | I28R | -0.084 ± 0.077
109 | I28N | -0.243 ± 0.13
110 | K46E | -0.013 ± 0.087
111 | K46W | -0.032 ± 0.053
112 | K46C | 0.129 ± 0.092
113 | F2R | -0.118 ± 0.074
114 | F2Y | -0.019 ± 0.066
115 | F2Q | -0.282 ± 0.12
116 | F51L | -0.053 ± 0.067
117 | F51R | -0.008 ± 0.047
118 | F51G | 0.033 ± 0.06
119 | C20S | -1.24 ± 0.4
120 | C20A | -1.01 ± 0.089

Row | Variant | abundance fitness
121 | L48V | -0.049 ± 0.081
122 | L48H | -0.209 ± 0.21
123 | L48K | 0.011 ± 0.052
124 | L48Y | 0.007 ± 0.049
125 | L48Q | 0.031 ± 0.09
126 | K29F | -0.224 ± 0.14
127 | K29H | -0.108 ± 0.24
128 | K29V | -0.289 ± 0.071
129 | K29Y | -0.011 ± 0.12
130 | K29A | -0.124 ± 0.09
131 | K29M | -0.052 ± 0.12
132 | K29N | 0.013 ± 0.12
133 | Q30P | -0.669 ± 0.18
134 | Q30R | -0.519 ± 0.1
135 | Q30W | -0.586 ± 0.2
136 | G26F | -0.703 ± 0.14
137 | G26R | -0.616 ± 0.093
138 | G26M | -0.345 ± 0.056
139 | G26H | -0.375 ± 0.092
140 | G26A | -0.225 ± 0.094
141 | G26D | -0.449 ± 0.084
142 | T10F | -0.045 ± 0.37
143 | T10H | -0.364 ± 0.15
144 | T10R | -0.494 ± 0.073

Row | Variant | abundance fitness
145 | T10G | -0.208 ± 0.068
146 | A21F | -0.074 ± 0.14
147 | A21Y | 0.13 ± 0.1
148 | L24Q | -0.424 ± 0.13
149 | K54G | -0.303 ± 0.1
150 | K54V | -0.248 ± 0.076
151 | K54L | -0.269 ± 0.087
152 | K54D | -0.186 ± 0.15
153 | K54M | 0.018 ± 0.098
154 | V27C | -0.192 ± 0.14
155 | C34L | -0.915 ± 0.094
156 | C34R | -0.954 ± 0.15
157 | C34M | -0.649 ± 0.086
158 | C34A | -0.81 ± 0.18
159 | C34K | -0.886 ± 0.25
160 | C37Q | -0.87 ± 0.32
161 | Y32P | -0.883 ± 0.2
162 | Y32K | -0.132 ± 0.047
163 | Y32Q | -0.536 ± 0.23
164 | Y32D | -0.224 ± 0.12
165 | Y32T | 0.093 ± 0.095
166 | Y32A | -0.171 ± 0.073
167 | G1L | -0.027 ± 0.11
